For one substance, luminescence without rapamycin as percent of that with rapamycin results are on record in article doi:10.1101/2020.04.09.034520.

In the test the target is FKBP_C-term (FKBP fused at its C-terminal end to the C-terminal NanoLuc fragment N2). Put plainly: split reporter.

For the substance “FRB_N-term (FRB fused at its C-terminal end to the N-terminal NanoLuc fragment N1)”, the luminescence without rapamycin as percent of that with rapamycin stood at 3%.
